Measurements taken from patent CN114539393A (BEIJING NEUABO XINESCAPE BIOTECHNOLOGY CO LTD, dated 2022).

Biological target: T1, SARS-CoV2的N蛋白 (SARS-CoV2, UniProt P0DTC9 1-419)
T1 construct: also called 新冠状病毒N蛋白; 2019-新型冠病毒N蛋白
Assay: ELISA, N protein coated at 2 ug/ml, VHH at 10.0 and 1.0 ug/ml, anti-Myc-HRP detection, OD450

B1: N2-8单域抗体 (VHH)
VHH: QVQLVESGGGSVQAGGSLRLSCAASGRTFSIYAMGWFRQAPGKEREFVAAISKSGEGTYYADSVKGRFTISRDNAKNTVALQMNSLKSEDTAVYYCAASRVVVSGLSPSDYAYWGQGTQVTVSS
notes: also called 单域抗体N2-8; N2-8-pSJF2; not shown: c-myc and His6 tags from the pSJF2 vector
Q: Does B1 bind?
A: binds

B2: N2-10单域抗体 (VHH)
VHH: QVQLVESGGGLVQTGGSLGVSCAASGRTFSIYAMGWFRQAPGKEREFVAAISKSGDGKYYADSVKGRFTISRDNAKNTVALQMNSLKFEDTAVYYCVASRTVVSGASPDEYDLWGQGTQVTVSS
notes: also called 单域抗体N2-10; N2-10-PSJF; not shown: c-myc and His6 tags from the pSJF2 vector
Q: Does B2 bind?
A: binds
